To fix the notation:
T1: Peptide No. 7, pS396/pS400/pS404, H-GC-RENAKAKTDHGAEIVYK(pS)PVV(pS)GDT(pS)PRHL-OH (human, phosphoserine (pS) at peptide positions 20, 24 and 28 (tau Ser396, Ser400, Ser404))
T1 peptide: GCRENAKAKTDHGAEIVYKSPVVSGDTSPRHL

T2: Peptide No. 3, pS202, H-SSPG(pS)PGTPC-OH (human, SMILES C[C@@H](O)[C@H](NC(=O)CNC(=O)[C@@H]1CCCN1C(=O)[C@H](COP(=O)(O)O)NC(=O)CNC(=O)[C@@H]1CCCN1C(=O)[C@H](CO)NC(=O)[C@@H](N)CO)C(=O)N1CCC[C@H]1C(=O)N[C@@H](CS)C(=O)O)
T2 peptide: H-SSPG[pS]PGTPC-OH

T3: Peptide No. 8, pS412, H-NV(pS)STGSC-OH (human, SMILES CC(C)[C@H](NC(=O)[C@@H](N)CC(N)=O)C(=O)N[C@@H](COP(=O)(O)O)C(=O)N[C@@H](CO)C(=O)N[C@H](C(=O)NCC(=O)N[C@@H](CO)C(=O)N[C@@H](CS)C(=O)O)[C@@H](C)O)
T3 peptide: H-NV[pS]STGSC-OH

T4: Peptide No. 5, pT217, H-GC-GSRSRTPSLP(pT)PPTREPKKVAVV-OH (human, phosphothreonine (pT) at peptide position 13 (tau Thr217))
T4 peptide: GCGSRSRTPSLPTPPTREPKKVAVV

T5: Peptide No. 1, pS46, H-GLKE(pS)PLQT-OH (human, SMILES CC(C)C[C@H](NC(=O)CN)C(=O)N[C@@H](CCCCN)C(=O)N[C@@H](CCC(=O)O)C(=O)N[C@@H](COP(=O)(O)O)C(=O)N1CCC[C@H]1C(=O)N[C@@H](CC(C)C)C(=O)N[C@@H](CCC(N)=O)C(=O)N[C@H](C(=O)O)[C@@H](C)O)
T5 peptide: H-GLKE[pS]PLQT-OH

T6: Peptide No. 2, pS199, H-SGYS(pS)PGSPGC-OH (human, SMILES N[C@@H](CO)C(=O)NCC(=O)N[C@@H](Cc1ccc(O)cc1)C(=O)N[C@@H](CO)C(=O)N[C@@H](COP(=O)(O)O)C(=O)N1CCC[C@H]1C(=O)NCC(=O)N[C@@H](CO)C(=O)N1CCC[C@H]1C(=O)NCC(=O)N[C@@H](CS)C(=O)O)
T6 peptide: H-SGYS[pS]PGSPGC-OH

T7: Peptide No. 4, pT212/pS214, H-GCGSPGTPGSRSR(pT)P(pS)LPTPPTREPK-OH (human, phosphothreonine (pT) at peptide position 14 (tau Thr212); phosphoserine (pS) at peptide position 16 (tau Ser214))
T7 peptide: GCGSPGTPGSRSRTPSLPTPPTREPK

T8: Peptide No. 6, pT231, H-KVAVVR(pT)PPKSPS-OH (human)
T8 peptide: H-KVAVVR[pT]PPKSPS-OH

B1: Humanized × [MAPT_H] mAb (Ta1505 VL46/VH11) IgG4 S228P/Kappa (CX) (antibody)
heavy: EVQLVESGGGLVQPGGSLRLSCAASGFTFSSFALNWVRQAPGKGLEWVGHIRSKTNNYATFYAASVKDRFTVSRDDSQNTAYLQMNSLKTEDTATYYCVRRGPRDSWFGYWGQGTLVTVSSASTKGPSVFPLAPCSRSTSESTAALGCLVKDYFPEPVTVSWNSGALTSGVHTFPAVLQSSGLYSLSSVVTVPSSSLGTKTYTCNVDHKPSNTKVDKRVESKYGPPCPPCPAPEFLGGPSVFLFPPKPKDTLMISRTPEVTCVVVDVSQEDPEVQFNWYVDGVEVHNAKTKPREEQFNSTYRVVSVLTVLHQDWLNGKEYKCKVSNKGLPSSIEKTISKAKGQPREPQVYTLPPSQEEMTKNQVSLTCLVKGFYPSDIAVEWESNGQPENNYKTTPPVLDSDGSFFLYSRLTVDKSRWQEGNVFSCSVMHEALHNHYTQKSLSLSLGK
light: DIVMTQSPLSLPVTLGEPASISCRSSQSIVHSNGNTYLEWYLQKPGQSPQLLIYTVSNRFSGVPDRFSGSGSGTDFTLKISRVEAEDLGVYYCFQGSHLPLTFGGGTKVEIKRTVAAPSVFIFPPSDEQLKSGTASVVCLLNNFYPREAKVQWKVDNALQSGNSQESVTEQDSKDSTYSLSSTLTLSKADYEKHKVYACEVTHQGLSSPVTKSFNRGEC
B2: humanized antibody L48H61 (antibody, human IgG1, kappa, V domains shown)
VH: EVQLVESGGGLVQPGGSLRLSCAASGFTFNSFALNWVRQAPGKGLEWVVHIRSKTNNYATFYADSVKDRFTVSRDDSKNTAYLQMNSLKTEDTATYYCVRRGPRDSWFGYWGQGTLVTVSS
VL: DIVMTQSPLSLPVTLGDPASISCRSSQNIVHSNGNTYLEWYQQKPGQSPQLLIYTVSNRFSGVPDRFSGSGSGTDFTLKISRVEAEDLGVYYCFQGSHLPLTFGGGTKVEIKR
notes: VL48/VH61, human IgG1/kappa
B3: humanized antibody L50H11 (antibody, human IgG1, kappa, V domains shown)
VH: B2 VH with N30S, V49G, D64A, K78Q
VL: B2 VL with Q50R
notes: VL50/VH11, human IgG1/kappa
B4: humanized antibody L48H64 (antibody, human IgG1, kappa, V domains shown)
VH: B2 VH with D64A, K78Q
VL: B2 VL
notes: VL48/VH64, human IgG1/kappa
B5: humanized antibody L48H62 (antibody, human IgG1, kappa, V domains shown)
VH: B2 VH with T28A
VL: B2 VL
notes: VL48/VH62, human IgG1/kappa

The values below come from patent US20180346564A1 (TEIJIN PHARMA, published 2018).

Residue numbers refer to the chain shown, from its start. Names may count otherwise. [ ]: non-standard residue; d: D form. pT = C[C@@H](OP(=O)(O)O)[C@H](N)C(=O)O; pS = N[C@@H](COP(=O)(O)O)C(=O)O

The target of the first test is Ser413 phosphorylated tau protein (pSer413-Tau) derived from Alzheimer's disease patient brain homogenate (human, UniProt P10636-8 2-441, limits assumed, phosphoserine at Ser413 (numbering of SEQ ID NO: 1)). In words: cell-based or functional assay.
Sequence of Ser413 phosphorylated tau protein (pSer413-Tau) derived from Alzheimer's disease patient brain homogenate (P10636 other isoform, or with tags, fused parts or gaps limits assumed): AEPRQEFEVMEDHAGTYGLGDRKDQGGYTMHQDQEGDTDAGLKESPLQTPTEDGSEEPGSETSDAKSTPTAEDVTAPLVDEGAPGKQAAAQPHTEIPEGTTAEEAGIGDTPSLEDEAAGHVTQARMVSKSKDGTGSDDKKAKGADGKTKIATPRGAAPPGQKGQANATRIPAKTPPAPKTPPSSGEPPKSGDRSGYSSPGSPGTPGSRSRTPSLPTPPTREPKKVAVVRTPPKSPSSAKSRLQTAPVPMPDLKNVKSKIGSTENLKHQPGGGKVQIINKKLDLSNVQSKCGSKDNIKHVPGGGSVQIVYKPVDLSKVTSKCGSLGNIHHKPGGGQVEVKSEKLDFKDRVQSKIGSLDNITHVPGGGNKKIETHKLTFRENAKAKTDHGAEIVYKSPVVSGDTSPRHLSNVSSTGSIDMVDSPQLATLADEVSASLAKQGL
As to B1, the “IC50 of the fall of the AT8 AlphaLISA signal with the antibody concentration (signal falls from about 7500 to about 4400 at the highest concentration, about 400 nM; no lower plateau)” value is 175 nM.

For another test, the target named is T9, His-tagged non-phosphorylated tau protein 4R0N (human, UniProt P10636 2-758).
T9 construct: Produced by Escherichia coli; negative control in SPR; also called ATGen Cat. No. ATGP0795
T9 sequence (P10636 other isoform, or with tags, fused parts or gaps limits assumed): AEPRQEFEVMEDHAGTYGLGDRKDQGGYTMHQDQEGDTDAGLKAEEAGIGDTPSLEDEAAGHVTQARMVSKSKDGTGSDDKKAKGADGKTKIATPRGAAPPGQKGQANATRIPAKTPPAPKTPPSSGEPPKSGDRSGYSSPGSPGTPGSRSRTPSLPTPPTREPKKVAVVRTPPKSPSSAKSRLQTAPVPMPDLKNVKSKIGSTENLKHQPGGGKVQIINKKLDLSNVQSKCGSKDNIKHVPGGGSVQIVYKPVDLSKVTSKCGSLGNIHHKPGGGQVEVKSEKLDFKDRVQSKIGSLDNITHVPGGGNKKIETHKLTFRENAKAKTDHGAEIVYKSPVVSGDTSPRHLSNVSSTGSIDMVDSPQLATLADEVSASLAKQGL
In words: SPR Biacore T200, antigen immobilized. The method, then:
The binding affinities of the hyperphosphorylated tau protein 4R2N (hpTau), non-phosphorylated tau protein 4R0N, monophosphorylated tau peptide 1×P, triphosphorylated tau peptide 3×P, and non-phosphorylated tau peptide Non P with each antibody were measured with an SPR system Biacore T200 (GE Healthcare Japan), in accordance with the instruction manual for evaluation attached to the system.
The His-tagged hpTau or Tau proteins were each immobilized on a sensor chip using an HBS-N buffer (code No. BR-1003-69) as the immobilization reaction solution and allowing a nickel chloride solution to react with the NTA sensor chip for bonding Ni to NTA. Subsequently, the sensor chip was activated with a mixed solution of N-ethyl-N′-(3-dimethylaminopropyl)-carbodiimide hydrochloride (1-ethyl-3-(3-dimethylaminopropyl)carbodiimide hydrochloride: EDC) and N-hydroxysuccinimide (NHS). A solution of each of the His-tagged proteins, adjusted to a concentration of 100 to 500 ng/mL with a 4-(2-hydroxyethyl)-1-piperazineethanesulfonic acid (HEPES) buffer (0.01 M HEPES, 150 mM KCl, 2 mM DTT, 1 mM EDTA, pH 7.2), was applied to the sensor chip, whereby the protein was immobilized on the sensor chip through covalent bonds with the Ni-NTA. The remaining active NHS was blocked with ethanolamine, and Ni ions were removed with an EDTA solution (Ni-affinity amine coupling: see International Publication No. WO2005/022156). The antigen peptides (1×P, 3×P, and Non P) were each immobilized on a sensor chip by activating the NTA sensor chip with a mixed solution of N-ethyl-N′-(3-dimethylaminopropyl)-carbodiimide (EDC) hydrochloride and N-hydroxysuccinimide (NHS), and then applying a solution of the antigen peptide diluted with a 10 mM sodium acetate buffer (pH: 4 to 4.5) to 1 to 10 μM to the sensor chip, whereby the peptide was covalently bound to the sensor chip. The remaining active NHS was blocked with ethanolamine. Thus, sensor chips immobilized respectively with the proteins and peptides mentioned above were produced.
A CAPS buffer (pH 10.5) was applied to these sensor chips at 37° C. to stabilize the protein- or peptide-immobilized surfaces of the sensor chips.
As for B2, the binding result is given as “no binding (tested: 0.2 to 1 nM)”.
With B3, the binding result is “no binding (tested: 0.2 to 1 nM)”.
Turning to B4, the binding result is reported as “no binding (tested: 0.2 to 1 nM)”.
On to B5, for which the binding result is given as “no binding (tested: 0.2 to 1 nM)”.

The next test addresses T1, Peptide No. 7, pS396/pS400/pS404, …. In words: ELISA, coated peptide. The gist of the method: (§1)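 Wells were coated overnight at 4 °C with 50 μL of peptide, or its bovine serum albumin or keyhole limpet hemocyanin conjugate, at 1 μg/mL in cold PBS, then blocked overnight at 4 °C with 3% BSA-PBS. Purified antibody at 150 ng/mL in 3% BSA-PBS was applied for 90 minutes at room temperature, followed by alkaline phosphatase-labelled goat anti-human IgG (H+L) diluted 2000-fold for 60 minutes. Antibody binding was recorded as absorbance. After 40 minutes of pNPP development, plates were read at 405 nm against a 550 nm reference.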
Regarding B2, the binding result is reported as “no binding (tested: OD value <0.5; antibody 150 ng/mL)”.
The same measure, in the same setting: for B3 the value was “no binding (tested: OD value <0.5; antibody 150 ng/mL)”.
Consider B4, for which the binding result is given as “no binding (tested: OD value <0.5; antibody 150 ng/mL)”.
On to B5, for which the binding result is “no binding (tested: OD value <0.5; antibody 150 ng/mL)”.

A further test addresses T2, Peptide No. 3, pS202, H-SSPG(pS)PGTPC-OH. In words: ELISA, coated peptide. The procedure, abridged:
as §1
For orientation: ELISA stands for enzyme-linked immunosorbent assay.
As for B2, the binding result was “no binding (tested: OD value <0.5; antibody 150 ng/mL)”.
Same read-out and setting: for B3 the value was “no binding (tested: OD value <0.5; antibody 150 ng/mL)”; for B4, “no binding (tested: OD value <0.5; antibody 150 ng/mL)”; for B5, “no binding (tested: OD value <0.5; antibody 150 ng/mL)”.

The target in the next test is T3, Peptide No. 8, pS412, H-NV(pS)STGSC-OH. In words: ELISA, coated peptide. The gist of the method: as §1
Turning to B2, the binding result is on record as “no binding (tested: OD value <0.5; antibody 150 ng/mL)”.
Consider B3, for which the binding result was “no binding (tested: OD value <0.5; antibody 150 ng/mL)”.
On the same count and under the same terms, for B4 the value was “no binding (tested: OD value <0.5; antibody 150 ng/mL)”.
Still for that read-out and setting: for B5 the value was “no binding (tested: OD value <0.5; antibody 150 ng/mL)”.

A further test addresses T4, Peptide No. 5, pT217, …. In words: ELISA, coated peptide. The gist of the method:
as §1
Take B2: the binding result is recorded as “no binding (tested: OD value <0.5; antibody 150 ng/mL)”.
With B3, the binding result is “no binding (tested: OD value <0.5; antibody 150 ng/mL)”.
Same read-out and setting: for B4 the value was “no binding (tested: OD value <0.5; antibody 150 ng/mL)”.
Still for that read-out and setting: for B5 the value was “no binding (tested: OD value <0.5; antibody 150 ng/mL)”.

Another test concerns the target T5, Peptide No. 1, pS46, H-GLKE(pS)PLQT-OH. In words: ELISA, coated peptide. The procedure, abridged:
as §1
As for B2, the binding result is reported as “no binding (tested: OD value <0.5; antibody 150 ng/mL)”.
Still for that read-out and setting: for B3 the value was “no binding (tested: OD value <0.5; antibody 150 ng/mL)”.
Still for that read-out and setting: for B4 the value was “no binding (tested: OD value <0.5; antibody 150 ng/mL)”.
Still for that read-out and setting: for B5 the value was “no binding (tested: OD value <0.5; antibody 150 ng/mL)”.

In a further test the target is T6, Peptide No. 2, pS199, …. In words: ELISA, coated peptide. The procedure, abridged:
as §1
Turning to B2, the binding result is “no binding (tested: OD value <0.5; antibody 150 ng/mL)”.
For B3, the binding result was “no binding (tested: OD value <0.5; antibody 150 ng/mL)”.
On the same count and under the same terms, for B4 the value was “no binding (tested: OD value <0.5; antibody 150 ng/mL)”.
For the molecule B5, the binding result is “no binding (tested: OD value <0.5; antibody 150 ng/mL)”.

In the next test the target is T7, Peptide No. 4, pT212/pS214, …. In words: ELISA, coated peptide. The gist of the method: as §1
On to B2, for which the binding result is “no binding (tested: OD value <0.5; antibody 150 ng/mL)”.
On the same count and under the same terms, for B3 the value was “no binding (tested: OD value <0.5; antibody 150 ng/mL)”; for B4, “no binding (tested: OD value <0.5; antibody 150 ng/mL)”; for B5, “no binding (tested: OD value <0.5; antibody 150 ng/mL)”.

The next test has as its target T8, Peptide No. 6, pT231, …. In words: ELISA, coated peptide. The procedure, abridged: as §1
For B2, the binding result was “no binding (tested: OD value <0.5; antibody 150 ng/mL)”.
The same measure, in the same setting: for B3 the value was “no binding (tested: OD value <0.5; antibody 150 ng/mL)”.
Take B4: the binding result is “no binding (tested: OD value <0.5; antibody 150 ng/mL)”.
On the same count and under the same terms, for B5 the value was “no binding (tested: OD value <0.5; antibody 150 ng/mL)”.
